# Data from patent KR20230039786A (dated 2023).
# Target: SARS-CoV NP antigen (Sino Biological) (SARS-CoV, UniProt P59595 1-422)
# Assay: indirect ELISA, SARS-CoV NP coated, anti-mouse IgG-HRP
# SARS-CoV NP antigen (Sino Biological), sequence (P59595 whole entry): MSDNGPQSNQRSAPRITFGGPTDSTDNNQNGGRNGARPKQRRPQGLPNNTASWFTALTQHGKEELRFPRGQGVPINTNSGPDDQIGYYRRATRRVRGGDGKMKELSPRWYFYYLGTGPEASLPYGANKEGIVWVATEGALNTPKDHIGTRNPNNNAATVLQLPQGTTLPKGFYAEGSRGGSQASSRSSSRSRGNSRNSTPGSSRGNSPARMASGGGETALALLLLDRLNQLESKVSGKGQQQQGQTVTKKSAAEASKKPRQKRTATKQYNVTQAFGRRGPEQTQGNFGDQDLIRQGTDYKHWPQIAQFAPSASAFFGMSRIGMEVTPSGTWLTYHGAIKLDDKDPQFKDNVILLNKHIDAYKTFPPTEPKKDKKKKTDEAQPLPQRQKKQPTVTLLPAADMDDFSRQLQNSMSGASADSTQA
row,Binder,EC50 [ng/mL]
1,"3E10 anti-NP monoclonal antibody (antibody, V domains shown) VH: EVQLEQSGPELVRPGVSVKISCKGSGYTFTDYAMHWVKQSHAKSLEWIGVISTYSGNTSYNQKFKGKATMTVDKSSSTAYMELARLTAEDSAIYYCANGGNYGFDYWGQGTTLTVSS VL: DIVLTQSPKFMSTSVGDRVSITCKASQDVGTAVAWYQQKPGQSPRLLIYWTSTRHTGVPDRFTGSGSGTDFTLTISNVQSEDLADYFCQQYSSYPLTFGGGTKLEIK",2
2,"3F10 anti-NP monoclonal antibody (antibody, V domains shown) VH: EVQLEESGPELKKPGETVKISCKASGYTFTDYSMHWVKQAPGKGLKWMGWINTETGEPTYADDFKGRFAFSLETSASTASLQINNLKNEDTATYFCGSGSRYSWYFDVWGAGTTVTVSS VL: DIVLTQSPKFMSTSLGDRVSVTCKASQSVGTNVAWFQQNSGQSPKALIYSASYRYSGVPDRFTGSGSGTDFTLTISNVKSEDLAEYFCQQYNSYPLAFGGGTKVEIK",10
3,"5B6 anti-NP monoclonal antibody (antibody, V domains shown) VH: QVQLQESGPELKKPGETVKISCTASGYTFANYGMNWVKQAPGKGLKWMGWINTYTGETTYADDFKGRFAFSLETSASTASLQINKLKNEDTATYFCTRSVLLRSYFDYGGQGTTLTVSS VL: DIVMTQSPKFMSTSVGDRVSITCEASQDVTTAVAWYQQKPGQSPKLLIYSASYRFAGVPDRFTGSGSGTDFTFTISSVQAEDLAVYYCQQHYSSPLTFGAGTKLELK",4
4,"5B6.8 anti-NP monoclonal antibody (antibody, V domains shown) VH: QVQLQESGPELVRPGVSVKISCKGSGYTFTDYAMHWVKQSHAKSLEWIGVISTYSGNTSYNQKFKGKATMTVDKSSSTAYMELARLTAEDSAIYYCANGGNYGFDYWGQGTTLTVSS VL: DIVITQSPKFMSTSVGDRVSITCEASQDVTTAVAWYQQKPGQSPKLLIYSASYRFTGVPDRFTGSGSGTDFTFTISSVQAEDLAVYYCQQHYSSPLTFGAGTKLELK",1320
